According to article PMC4457826 (PLoS Pathogens, 2015):

Assays:
USP7-CTD = target: T1, USP7-CTD (Homo sapiens, UniProt Q93009); assay: GST pull-down, USP7-CTD; assay type: binding; conditions: GST pull-down; GST-ICP0 594–775, GST-GMPS and GST-UHRF1 peptides and mutants; Fig 3H, 4C-F
T1 construct: USP7-CTD (535–1102); His tag (inferred from nickel-NTA purification; vector p15TV-L); made in house; host or cells: E. coli BL21(DE3)mgk
Method: (§1) Fragments representing USP7-CTD Ubl domains were prepared using ligation independent cloning with In-Fusion (Clontech) in p15TV-L. The boundaries of the Ubl domain constructs are Ubl12 (535–776), Ubl123 (535–889), Ubl345 (776–1102), Ubl45 (886–1102) and USP7-CTD (535–1102). Plasmids expressing USP7-NTD, USP7, and myc-USP7 WT (pCANmycUSP7) were described previously. USP7 mutants E759A, D762A, D764A and D762A/D764A in Ubl123 were synthesized (Genscript) and inserted into the pET15b plasmid. USP7 mutants E759A, D762A, D764A, D762A/D764A and D762R/D764R in USP7-CTD were prepared by ACGT Corporation. The D762R/D764R mutant was then sub-cloned into wild-type pCANmycUSP7 for co-IP assays. The mammalian ICP0 expression construct pCI-110 ICP0 was obtained from Roger Everett.
(§2) The ICP0, GMPS and UHRF1 WT and mutant peptides were cloned into pGEX-2TK and expressed in E. coli BL21(DE3). GST-ICP0 594–775 was obtained from Roger Everett. The GST-ICP0 or GST-GMPS or GST-UHRF1 or GST-ICP0 594–775 cell pellets from 500 ml of LB broth were re-suspended with PBS and lysed using sonication. The cleared lysates were applied to 500 μl of equilibrated glutathione-sepharose beads and incubated with rocking for 60 min at 4°C. Unbound proteins were removed by washing with PBS. Bound proteins were eluted with 50 mM Tris pH 8.0 and 100 mM NaCL containing 30 mM reduced glutathione. […]

[1] = test system: USP7-CTD mutant D762R/D764R; assay: GST pull-down, USP7-CTD D762R/D764R; assay type: binding, human
Method: as §1, §2

T1 sequence (Q93009 535-1102): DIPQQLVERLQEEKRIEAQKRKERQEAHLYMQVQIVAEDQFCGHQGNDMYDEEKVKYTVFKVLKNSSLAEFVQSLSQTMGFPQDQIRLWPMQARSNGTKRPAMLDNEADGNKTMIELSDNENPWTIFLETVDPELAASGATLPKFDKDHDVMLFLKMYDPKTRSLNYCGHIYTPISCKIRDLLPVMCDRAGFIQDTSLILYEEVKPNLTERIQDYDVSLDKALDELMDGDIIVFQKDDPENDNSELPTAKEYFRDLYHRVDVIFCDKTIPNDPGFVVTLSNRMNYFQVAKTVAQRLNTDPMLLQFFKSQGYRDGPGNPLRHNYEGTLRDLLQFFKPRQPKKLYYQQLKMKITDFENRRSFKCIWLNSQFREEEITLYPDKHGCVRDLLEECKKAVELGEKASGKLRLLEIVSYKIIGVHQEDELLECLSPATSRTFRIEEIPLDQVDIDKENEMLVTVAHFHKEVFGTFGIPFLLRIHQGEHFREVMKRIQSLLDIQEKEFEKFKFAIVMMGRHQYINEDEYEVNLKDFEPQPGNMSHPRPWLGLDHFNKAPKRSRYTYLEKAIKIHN

B1: GST-ICP0 594–775: longer ICP0 peptide corresponding to residues 594–775 (protein)
chain: AVGALGGRQEETSLGPRAASGPRGPRKCARKTRHAETSGAVPAGGLTRYLPISGVSSVVALSPYVNKTITGDCLPILDMETGNIGAYVVLVDQTGNMATRLRAAVPGWSRRTLLPETAGNHVMPPEYPTAPASEWNSLWMTPVGNMLFDQGTLVGALDFRSLRSRHPWSGEQGASTRDEGKQ
modifications: left off: GST, end not stated, kept
USP7-CTD
  Binding to WT USP7-CTD: interaction was observed
[1]
  Binding to USP7-CTD mutant D762R/D764R: not D762R/D764R USP7-CTD
